In US20220135694A1, “NOVEL CD40-BINDING ANTIBODIES” (LAVA THERAPEUTICS B.V., priority 2019, published 2022):
Values belong to the molecule of their own block, whether it stands above or below them.

Key:
[1] = target: T1, human CD40 (CD40-transfected HEK293T cells) (Homo sapiens, UniProt P25942); test: Monovalent VHH binding to CD40-transfected HEK293T cells, Myc-tag flow cytometry; settings: for binding to CD40-expressing cells: detection of the Myc tag, FIG. 1B; for average geometric mean fluorescence intensity (Myc-tag): CD40-transfected HEK293T cells, 2 experiments
T1 construct: expressed in transfected cells; host or cells: HEK293T
Experimental: The embryonic kidney cell line HEK293T, either wildtype (WT) or transfected with human CD40, was grown in Dulbecco's Modified Eagle Medium (41965-039, Thermo Fisher Scientific, Waltham, Mass., USA), supplemented with 10% fetal calf serum (F7524, Merck, Kenilworth, N.J., USA), 200 mM L-glutamine (25030-123, Thermo Fisher Scientific), 0.05 mM β-mercapto-ethanol (M6250, Merck) and 10,000 U/mL penicillin/streptomycin (15140-122, Thermo Fisher Scientific), hereafter referred to as complete DMEM.
CD40 expression on CD40-transfected cells was confirmed by incubation with a PE-conjugated anti-CD40 antibody (IM1936U, Beckman Coulter, Brea, Calif., USA) for 20 minutes at 4° C. […] Bound VHH was detected by sequential incubation with mouse-anti-Myc tag (05-274, Merck) and AF488-conjugated goat-anti-mouse (A-11001, Thermo Fisher Scientific) antibodies for 20 minutes at 4° C.
Samples were measured on a FACSCanto cytometer (BD Biosciences, Franklin Lakes, N.J., USA) and analyzed with Flowjo MacV10.

primary CLL cells = test: Monovalent VHH binding to primary CLL cells, flow cytometry; parameters: species or system human; settings: n=5 samples; FIG. 2B
Source text: Peripheral blood (PB) mononuclear cells (PBMCs, ≥95% CD5^+CD19^+) were isolated from PB samples from untreated CLL patients and cryopreserved as described previously (Hallaert et al. (2008), Blood 112(13):5141-9). The study was approved by the medical ethics committee at the Amsterdam UMC. Written informed consent from all subjects was obtained. Thawed cells were kept in Iscove's Modified Dulbecco's Medium (IMDM; 12440-053, Thermo Fisher Scientific), supplemented with 10% fetal calf serum (F7524, Merck), 200 mM L-glutamine (25030-123, Thermo Fisher Scientific), 0.05 mM β-mercapto-ethanol (M6250, Merck) and 10.000 U/mL penicillin/streptomycin (15140-122, Thermo Fisher Scientific), hereafter referred to as complete IMDM.
CD40 expression on primary CLL cells was confirmed and VHH binding was tested as described in Example 2.

CD40 [2] = target: T2, CD40 (Homo sapiens, UniProt P25942); test: CD40 agonistic activity in primary CLL cells, 48 h, flow cytometry; type: cell-based; settings: various concentrations, FIG. 3A-C
T2 construct: Primary chronic lymphocytic leukemia (CLL) cells express CD40 on the cell surface; endogenous in cells; host or cells: primary CLL PBMCs from untreated CLL patients
Experimental: PBMCs (≥90% CD5^+CD19^+) from untreated CLL patients were obtained and cryopreserved as described in Example 3. Thawed cells were kept in complete IMDM.
To assess whether binding of the VHH to CD40 has agonistic effects, primary CLL PBMCs were cultured for 48 hours in the presence of VHH, medium control or recombinant multimeric CD40 ligand (rmCD40L; 100 ng/mL, Bioconnect).
After 48 hours, cells were harvested, washed and incubated with AF700-conjugated anti-CD19 (557921), FITC-conjugated anti-CD80 (6109965), APC-conjugated anti-CD86 (555660, all BD Biosciences), PE-conjugated anti-CD5 (12-0059-42, Thermo Fisher Scientific) and PECy7-conjugated anti-CD95 (305621, Biolegend, San Diego, Calif., USA) antibodies for 20 minutes at 4° C. Alternatively, after 48 hours, cells were harvested and viability was measured using Mitotracker Orange (25-minute incubation at 37° C.) and To-pro-3 (10-minute incubation at room temperature; both Thermo Fisher Scientific). Samples were measured on a FACSCanto cytometer (BD Biosciences) and analyzed with Flowjo MacV10.
To assess whether binding of the VHH has agonistic effects, primary CLL PBMCs were cultured with the indicated concentrations of V19S76K-5C8, medium control or rmCD40L for 48 hours and analyzed by flow cytometry as described in Example 4.

CD40 [3] = target: T2, CD40; test: CD40 antagonistic activity in primary CLL cells: pre-incubation, then rmCD40L for 48 h; type: cell-based; settings: 30 min pre-incubation, then rmCD40L 100 ng/mL for 48 hours; FIG. 4A-C
Experimental: PBMCs (≥90% CD5^+CD19^+) from untreated CLL patients were obtained and cryopreserved as described in […]. Thawed cells were kept in complete IMDM.
To test whether the VHH antagonizes CD40 stimulation, primary CLL PBMCs were pre-incubated with VHH or medium control for 30 minutes at 37° C. and subsequently cultured for 48 hours in the presence of rmCD40L (100 ng/mL).
After 48 hours, cells were analyzed by flow cytometry as described in Example 4.
To assess whether binding of the VHH has antagonistic effects, primary CLL PBMCs were pre-incubated with V19S76K-5C8 or medium control and then cultured with rmCD40L for 48 hours and analyzed by flow cytometry as described in Example 5.

human CD40 [4] = target: T3, human CD40 (human, UniProt P25942 21-277); test: flow cytometry, CD40-transfected HEK293T cells, VHH 1 µM, Myc-tag detection; controls: cells without VHH and WT HEK293T with and without VHH
T3 construct: In the assays it stood on CD40-transfected HEK293T cells, primary CLL cells or the CLL-derived CII cell line; also called tumor necrosis factor receptor superfamily member 5; TNR5_HUMAN
Experimental: FIG. 1: Anti-CD40 VHHs bind to CD40-expressing cells. (A) CD40 expression on WT (filled histogram) and CD40-transfected (unfilled histogram) HEK293T cells. (B) CD40-negative WT or CD40-transfected HEK293T cells were incubated with V12t (1 μM), V15t (1 μM), V19t (1 μM) or medium control and the Myc-tag was subsequently detected by flow cytometry. Representative histograms obtained in 3 independent experiments are shown.

human CD40 [5] = target: T3, human CD40; test: flow cytometry on CD40+ CII cells, anti-llama IgG detection, non-linear regression
Experimental: (§1) FIG. 6: V19S76K-5C8 binds to CD40⁺ and Vγ9Vδ2+ cells. Cell lines were incubated with V19S76K-5C8 or medium control and bound bsVHH was detected using anti-llama IgG heavy and light chain antibodies by flow cytometry. (A) Bar plots and (B) non-linear regression analysis of V19S76K-5C8 binding to healthy donor-derived Vγ9Vδ2-T cell lines (n=3). (C) Bar plots and (D) non-linear regression analysis of V19S76K-5C8 binding to […] CD40⁺ CII cell line (n=3). […] (A, C: repeated-measures one-way ANOVA followed by Dunnett's post hoc test compared to condition without bsVHH; B, D: non-linear regression analysis).

human CD40 [6] = target: T3, human CD40; test: flow cytometry, CD40+ CII cell line (n=3), non-linear regression curve
Experimental: as §1

[7] = target: human Vγ9Vδ2 T cell receptor (human) (UniProt Q99603); test: flow cytometry, healthy donor-derived Vγ9Vδ2-T cell lines (n=3), non-linear regression curve
[8] = target: human Vγ9Vδ2 T cell receptor (human) (UniProt Q99603); test: flow cytometry on healthy donor-derived Vγ9Vδ2-T cell lines, anti-llama IgG detection, non-linear regression
CD40+ CII target cells = test: Cytotoxicity assay: CII target cells with Vγ9Vδ2-T cells; type: cell-based, human; settings: overnight with Vγ9Vδ2-T cells, 1:1 ratio; FIG. 11A
Experimental: CD40^+ CII cells and Vγ9Vδ2-T cells were grown as described in Example 7.
CII target cells were labeled with carboxyfluorescein succinimidyl ester (CFSE; C1157, Thermo Fisher Scientific) and incubated with VHH or medium control for 30 minutes at 37° C. Target cells were then cocultured overnight with Vγ9Vδ2-T cell lines in a 1:1 ratio.
Viability was measured as described in Example 4.

T2 sequence (P25942 21-277): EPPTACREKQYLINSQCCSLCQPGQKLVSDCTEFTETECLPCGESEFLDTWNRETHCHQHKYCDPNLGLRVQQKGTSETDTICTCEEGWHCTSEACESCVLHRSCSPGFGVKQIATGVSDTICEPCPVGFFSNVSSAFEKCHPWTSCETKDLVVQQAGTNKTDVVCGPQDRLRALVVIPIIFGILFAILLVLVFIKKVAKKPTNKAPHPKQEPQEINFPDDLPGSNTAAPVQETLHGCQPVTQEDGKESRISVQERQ
T1 sequence (P25942 21-277): as above
T3 sequence (P25942 21-277 limits assumed): as the sequence (P25942 21-277) above

average geometric mean fluorescence intensity (Myc-tag) ([1]; VHH concentration 1 pM): 5031
average geometric mean fluorescence intensity (Myc-tag) ([1]; VHH concentration 10 pM): 4938
average geometric mean fluorescence intensity (Myc-tag) ([1]; VHH concentration 100 pM): 5538
average geometric mean fluorescence intensity (Myc-tag) ([1]; VHH concentration 1 nM): 6783
average geometric mean fluorescence intensity (Myc-tag) ([1]; VHH concentration 10 nM): 9101
average geometric mean fluorescence intensity (Myc-tag) ([1]; VHH concentration 100 nM): 16175
binding to CD40-expressing cells [1]: bound to the CD40-expressing cells
B2: V19t: monovalent anti-CD40 VHH V19 with C-terminal Myc- and His6-tag, SEQ ID NO:15 (protein)
VHH: QVQLQESGGGLVQAGGSLRLSCAASGRTFGRSAMGWFRQAPGKEREFVAAIGTRGGSTKYADSVKGRFTISTDNASNTVYLQMDSLKPEDTAVYRCAVRGPGYPSAAIFQDEYHYWGQGTQVTVSSGLEGHSDHMEQKLISEEDLNRISDHHHHHH
modifications: antibody sequence
binding to primary CLL cells (primary CLL cells): higher binding intensity than V12t
CD40 stimulation (viability, CD86 and CD95 expression) (CD40 [2]): did not induce any of these effects
prevention of CD40L-induced CD40 stimulation (viability, CD86 and CD95 expression) (CD40 [3]): prevented CD40 stimulation in a dose-dependent manner

binding result (human CD40 [4]): binds
B3: V15t (VHH)
VHH: EVQLQESGGGLVQAGGSLRLSCVTSGSAFSSDTMGWFRQAPGKQRELVASISSRGVREYADSVKGRFTISRDNAKNTVYLQMNSLQPEDTAVYYCNRGALGLPGYRPYNNWGQGTQVTVSS
notes: Llama VHH with C-terminal Myc- and His6-tag; also called monovalent anti-CD40 VHH V15t

binding result (human CD40 [4]): binds
B4: V12t (VHH)
VHH: QVQLQESGGGLVQAGGSLRLSCAASGLVFKRYSMNWYRQPPGQQRGLVASISDSGVSTNYADSVKGRFTISRDNAKNIGYLQMNSLKPEDTAVYYCNMHTFWGQGTQVTVSS
notes: Llama VHH with C-terminal Myc- and His6-tag; also called monovalent anti-CD40 VHH V12t

The next lines start with the molecule.

B1: V15t: monovalent anti-CD40 VHH V15 with C-terminal Myc- and His6-tag, SEQ ID NO:16 (protein)
VHH: EVQLQESGGGLVQAGGSLRLSCVTSGSAFSSDTMGWFRQAPGKQRELVASISSRGVREYADSVKGRFTISRDNAKNTVYLQMNSLQPEDTAVYYCNRGALGLPGYRPYNNWGQGTQVTVSSGLEGHSDHMEQKLISEEDLNRISDHHHHHH
modifications: antibody sequence
binding to CD40-expressing cells [1]: bound to the CD40-expressing cells
binding to primary CLL cells (primary CLL cells): higher binding intensity than V12t
CD40 stimulation (viability, CD86 and CD95 expression) (CD40 [2]): did not induce any of these effects
prevention of CD40L-induced CD40 stimulation (viability, CD86 and CD95 expression) (CD40 [3]): prevented CD40 stimulation in a dose-dependent manner

B5: V19S76K-5C8 (bispecific antibody)
chain: QVQLQESGGGLVQAGGSLRLSCAASGRTFGRSAMGWFRQAPGKEREFVAAIGTRGGSTKYADSVKGRFTISTDNAKNTVYLQMDSLKPEDTAVYRCAVRGPGYPSAAIFQDEYHYWGQGTQVTVSSGGGGSEVQLVESGGGLVQAGGSLRLSCAASGRPFSNYAMGWFRQAPGKEREFVAAISWSGGSTSYADSVKGRFTISRDNAKNTVYLQMNSPKPEDTAIYYCAAQFSGADYGFGRLGIRGYEYDYWGQGTQVTVSS
notes: also called bispecific anti-CD40-anti-Vγ9Vδ2 TCR VHH V19S76K-5C8; bsVHH
Kd (human CD40 [5]): 10.9 nM
EC50 (read off the curve) (human CD40 [6]): ~10 nM
EC50 (read off the curve) [7]: 1 nM
Kd [8]: 1.2 nM

B6: V12-5C8t: bispecific VHH: anti-CD40 V12 joined to anti-Vδ2-TCR 5C8 by Gly4Ser linker, Myc- and His6-tag, SEQ ID NO:37 (protein)
VHH: QVQLQESGGGLVQAGGSLRLSCAASGLVFKRYSMNWYRQPPGQQRGLVASISDSGVSTNYADSVKGRFTISRDNAKNIGYLQMNSLKPEDTAVYYCNMHTFWGQGTQVTVSSGGGGSEVQLVESGGGLVQAGGSLRLSCAASGRPFSNYAMGWFRQAPGKEREFVAAISWSGGSTSYADSVKGRFTISRDNAKNTVYLQMNSPKPEDTAIYYCAAQFSGADYGFGRLGIRGYEYDYWGQGTQVTVSSGLEGHSDHMEQKLISEEDLNRISDHHHHHH
modifications: antibody sequence
lysis of CII target cells (CD40+ CII target cells): less potent
